The DeepSol protein solubility set

Test: soluble on expression in E. coli; label from the status in PepcDB or PDB records

Soluble on expression in E. coli, not soluble:
MPRKQLKGETHDQKAQIASAFGEIEQSKIFLDKRSESAAVKMDIADLLKEIIQKQLRKDYDPEVESNIFINPERGDFEVYILKKIVKEVDLPTIEIGLDEVRQIDDSLELGDYYEEGPIKLDDYLTRKSIQIIKQSVQKKVRDLERLAVYEECLEKVGEVVAGEVYQVRPNEVIFTYNTSKDHRVELVLPKSEMMKKDNPRRTPRMKLYVKRIEREKVKVRNDDGTVEEREKPDGGMKVIVSRVDDRFLYKLFESEVPEILDGLIVIKGIARVPGERAKVAVESTSSRIDPVGATVGYRGKRIQSIVKELNNENIDVIYYTDEPQVFIARALQPAKIDPMTVHADMKTRKARVMLKPDQIKYAIGKNGNNIHLAEKLTGYEIDVYRDVIDKSLEDPNDIDIIEFREEFGDDMIYQLLDGGLDTAKKILKGGVEKIEEALLGTQKSEELFVFNKTRKPVKPKERRITDDEKRYWKKIAETIYRTVREQFNDEDLKALLDDSHERSLKGDGIDPEEIRDKETNLEHHHHHH, MIGNVKMEYASASEEYLTESEMDEYLDDLRSKIPSFIVELLKNNLKNRKLTRPQLDKIVGRVSDLYFGKKPEDKKAAELTNKINDLSQKLDALMKVATISSATKVSDDIKKELNYLDDEKIEVPEISKAVEVPEIIEEPEISIEPVEEPVVEPVKIIEKQTVEPIIEFKEEPKIEKVVSKVPLEIEEGNNMRPELTPAVETTARLQELPEDTLSTMLVFKWLEFLISRVGTGNLIDVLDYYHNLGWVSGKAISKLMKVSKNMKYFHEDIDWKANECMAPEDHVVSLLYIEKLAGRPIAVEELEGMEREINRIKKWAEELQKM, MGSDKIHHHHHHMAEKFDAIVVGAGPAGNAAAYTMAKAGLSVLQLERGETPGTKNVQGAILYADALERIIPDFRDDAPLERHIIEQRMWVLDEKSFIGTNYRSDAFNSDQPNRYTILRAPFDKWFSGKVKEAGALVICETTVTELIQEGKKVIGVRTDREGGDIYADVVILADGVNSLLAKKAGFHGELEAKNVALAVKEIHFLPEEIVQSRFNIKGNEGVVIEIAGAVTHGMVGTAFLYTNKESITLGIGCLLSDFKNAGIAPYTLLEKLKAHPAIAPLIEGGEMKEYAAHLIPEGGYKAVPTLYGEGWMIAGDSAGLVNAVHREGSNLAMTSGRLAAETVIALKEMKLPCTAPHLARYKTALDDSFVMKDLRKYKELPDILHGNPHFFSVYPQLLNRAAHTMLMVDGQDKHSKEKTIRGSFVQQRSLWGLVGDAYRMWRATR, MADSTPILFDRRLLAARLHRAAALGPAPFLLDRVAEEMDERLHAVLRDFTEVADLWTPGGLKLQRFPKLAHLAVDPSGSEALPFAPGSLDLVVSALALQFANDLPGVLAQLRRALKPDGLLLAALTGGETLTELRQAFASAEAEIEGGVSPRVAPAADLRDLGALLQRAGFALPVTDVDRVVVRYDHAFALMQDLRRMGATNVLIERRRTPLRRATLTRMAQIYADRFSDPDGRIRATFEIVWLSGWSPHESQQQPLKPGSAKVSLEEAVRGKRLEHHHHHH, MAHHHHHHMSMKKKMTKPFRTVVHLPVEEARGAIVRMIRRHNAVVIVGETGSGKTTQIPQYVWDDLVSREPPEQQGIVGCTQPRRVAAVSIARHVAKQRGGSVGAEVAYAVRFDDTCSRQTKIKYMTDGILLREIQTDPDLSHYRCLLLDEAHERTLHGDVLFGLLKDIVRRRKKTLTIVVMSATLNAEHFSKFWWNAPIGVVHGRLYPVTIFHTVEPQADYVEAAVSTLLQIHEKEEPGDVLCFLTGQEEIEDAKRILERRMKVMPSTLQEFMILTLYSAMPYEQQLRVFEPPLPGKRRIILSTNIAETSITVEGIRYVVDSGVVKAKFFSSKSGMEVLSEVDVSKAQATQRAGRAGRMTAGKCFRLYTAQAFESLAENTVPEIQRSSLISVVLEMKSLRIDRIMDFEFMDAPNPKAVVRAEETLMLLGALDRQGHITRLGQRLIDFPIEPMAAIVLLAGKALGVERDVTIAISMTMTENLFFTSREAKDGADRCKAAFAKSAGDHATLLGIYYAYKRVPKDQRKMWCESNAVNPSQMLKAEDVMTQLGAILNEHSDEELLSTMVRRSPNLAGNGAALHRKRRRDSEKDASGDDETSELLKGQTSGMVKLRDFELIRRALCYGFSLNAAFYNAKIGNYQTVVGQQVVHLHPSSVLFYQRKKPALVVFNSVVRTTRRYMKDVSVVQEEWLRDAASFLRPVA, PKLVCLVSSSNSFATFLAEEIPIISNKGIGVKGIKLKAEEKVRFAMPLQD, MGSDKIHHHHHHMKRLIGCVLLFLGASLYGCGGQGEDPETIVSEKPIEEWDDEEEDGGEWTVPDIDLSNFRHDPTEWGENVTGVKTKLDTKEQVIALTLDACGGPHGSQFDEELLAYLQEKEIPATLFVNERWIDENEDVFLSLANNPLFQIENHGSAHKPLSVNGRNAWNIEGTKSPEEVVNEITNNQQRIYQLTGRSTRLFRSGTAFYDEVAVEIANALGVEVVNYSVLGDAGATFTAEQVKAALLNAEPGAIVLMHMNQPASGTAAGVKAAIPLLIEKGYTFARLDEYDLT, MKKNFFSDLPEETIVNTLSFLKANTLARIAQTCQFFNRLANDKHLELHQLRQQHIKRELWGNLMVAARSNNLEEVKKILKKGIDPTQTNSYHLNRTPLLAAIEGKAYQTANYLWRKYTFDPNFKDNYGDSPISLLKKQLANPAFKDKEKKQIRALIRGMQEEKIAQSKCLVC, MPAHPAKTDLASSAGARGGALAMESAEHSASPAIATTARLLAAMKDQPGALLPVLHAVQDELGFIPPEAVQTIAETLSLSRAEVHGVITFYPHFRSEPAGRHVLEICRAESCQAMGGDALAAHARQRLGCEFHATAADGSCTLEPVYCLGLCAQSPAVMIDGQPHARVTPAKLDRLLARAIEATP, MGSDKIHHHHHHMPLNMNRDVFITAAVTGSGGTQDKSPHVPRSPKEIAASAIEAARAGAAVVHCHVRDPETGAPSRRLELYRELTDRIRDSEVDVVLNLTAGMGGDIVFGSTEAPLPVNEAATDMIGATERMAHIAECLPEICTLDCGTMNFAEADYVMTNTPGMLRAMGQMMTDLGVKPEIEAFDTGHLWFAKQLVKEGILEPNALVQLCMGVPWGAPNDLNTFMAMVNNVPSDWTWSAFSLGRDQMPFAAASVLAGGNVRVGLEDNLFLDKGVLATNAQLVERAVSVIEGMGAKIVGPDAVREKLGLTKRAPVAA, MGSDKIHHHHHHVVIGFFKKLFNVRDRNEQAKFTGITTAEKRQQTKPQTPVPAIEVTEHQAVESQLDLSALFYSLLFATPSTTTTGIANNLERSVMQNIEQALSSPQSIAENVLKLPSKILELDKKLGDDNIETQELILLIEQDPLLCVEVLKLCNSPAFKRADTDVSSIQQALVQVGRQQLRQFITACLARELIDIKPIYFRRFGAEIWRHSMQVAFLASELASNEQRDSAFLLGLLHDVGKIAIFKMLVDAFYQAEPGEQPNSILFKQVMTTKSLTLSALLARSWQLSQHFETPLTLLANTNIKPTDGMTLLIWKANIISECSMLLQVDKLPQPALAVLLAQVECSEEDFIELHQKLIQF

Soluble on expression in E. coli, soluble:
MSLWYNRAMKHFDTIVIGGGPAGMMATISSSFYGQKTLLIEKNRKLGKKLAGTGGGRCNVTNNGSLDNLLAGIPGNGRFLYSVFSQFDNHDIINFFTENGVKLKVEDHGRVFPASDKSRTIIEALEKKITELGGQVATQIEIVSVKKVDDQFVLKSADQTFTCEKLIVTTGGKSYPSTGSTGFGHEIARHFKHTITDLEAAESPLLTDFPHKALQGISLDDVTLSYGKHVITHDLLFTHFGLSGPAALRMSSFVKGGEVLSLDVLPQLSEKDLVTFLEENREKSLKNALKTLLPERLAEFFVQGYPEKVKQLTEKEREQLVQSIKELKIPVTGKMSLAKSFVTKGGVSLKEINPKTLESKLVPGLHFAGEVMDINAHTGGFNITSALCTGWVAGSLHYDEGHHHHHH, MSLKKMSIKVPGKLFFAGEYSVTKEGNLALITTIETNFEVRISATTGKSIFKTNVGLSDFEFSLSKIEFTKENPWNFALTALKNTLSAADSFEKKSVSKILSSSPEISLEIVSDLGFGENKKGYGSSASVVCGLVNAVNQFFDFQLSLEKRFEIAAKTHFEVQGSGSMGDIAAIMYGGSVFYQNHKRVIPLEIPWATYVVQTGKAAKTSEKIKIKLSDEFYQASNELVIELATAIDIQDFALFKEKLSENQLLLLENIPEGYMTKELAIALNLLNSYPEFAAKISGAGFGENIILFAQNTQAIAEVQNKLSEYGINLEKFKVAQKNNEGHHHHHH
